# Patent US5019384A, “Immunonodulating compositions and their use” (Massachusetts Institute of Technology, priority 1989, dated 1991)
# What was measured:
# I-E^k [1] = target: T1, I-E^k (Mus musculus, UniProt P04224+P04230); assay: Gel filtration binding of 125I-labeled peptide to purified Ia (I-E^k)
# T1 sequence (P04224 26-255): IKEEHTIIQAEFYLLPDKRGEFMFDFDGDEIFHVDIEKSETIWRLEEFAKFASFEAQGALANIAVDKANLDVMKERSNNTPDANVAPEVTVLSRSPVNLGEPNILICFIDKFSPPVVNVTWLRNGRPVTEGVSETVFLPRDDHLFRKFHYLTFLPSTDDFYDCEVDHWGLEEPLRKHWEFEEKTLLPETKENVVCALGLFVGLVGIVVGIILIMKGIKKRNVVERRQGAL
# T1 sequence (P04230 27-264): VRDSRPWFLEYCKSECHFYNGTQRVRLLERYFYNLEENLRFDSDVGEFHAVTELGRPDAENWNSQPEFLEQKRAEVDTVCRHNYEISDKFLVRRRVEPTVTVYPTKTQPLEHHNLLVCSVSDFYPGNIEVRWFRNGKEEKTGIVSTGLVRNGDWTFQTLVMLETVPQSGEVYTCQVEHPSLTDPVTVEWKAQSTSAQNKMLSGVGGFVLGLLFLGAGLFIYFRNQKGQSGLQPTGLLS
# From the text: The peptide P12-26 was modified by the addition of a tyrosine residue to the N-terminus to serve as an acceptor for the ^125 I.
# (§1) Ia-molecules were purifed from Nonidet P-40 (NP-40) lysates of A20 (H2^d) or AKTB-1b (H2^k) cells by affinity chromatography using the following monoclonal antibodies: MK-D6 (I-A^d -specific), 10-3-6 (I-A^k -specific) specific) or 14-4-4 (I-E^d/k -specific) coupled to Sepharose 4B beads (Pharmacia Fine Chemicals, Sweden).
# (§2) A gel filtration assay was used for determining the degree of association between immunogenic peptides and Ia. The assay is described in: Buus, S. et al., Proceeding of the National Academy of Sciences, U.S.A. (1986) 83:3968, the teaching of which is incorporated herein by reference. Briefly, 40 μmole of purified Ia in 1 percent NP-40/PBS was mixed with 0.2 μmole of ^125 I-labeled peptide (approximately 200,000 cpm for each experiment) and incubated for 48 hours at room temperature to allow for formation of the Ia-peptide complex. The Ia-peptide complexes were separated from free peptide by gel filtration and the percentage of peptide bound to Ia was calculated as the ratio of the ^125 I-labeled peptide in the void volume to the total ^125 I-labeled peptide recovered.
# I-E^k [2] = target: T1, I-E^k; assay: Inhibition of binding of 125I-labeled Cytochrome c (pigeon) (P88-104) to I-E^k; conditions: 125I Cytochrome c (pigeon) (P88-104) bound to I-E^k; read-out: Concentration (μM) of P12-26 Required for 50 percent Inhibition
# From the text: as §1
# as §2, with “Briefly, 40 μmole of purified Ia in 1 percent NP-40/PBS was mixed with 0.2 μmole of ^125 I-labeled peptide (approximately 200,000 cpm for each experiment) and incubated for 48 hours at room temperature to allow for formation of the Ia-peptide complex.” left out
# For the inhibition assay a dose-range of unlabeled cI P12-26 peptide was added to the incubation mixture of Ia and ^125 I-labeled peptide (600, 120, 24, ad 48 μM). The degree of association between Ia and labeled peptide was determined by gel filtration as described in Table 1. […] The concentration of inhibitory peptide required to obtain a 50 percent inhibition of binding was calculated. […]
# [3] = test system: Lymph node-derived T-cell; assay: Lymph node-derived T-cell proliferation in mice immunized with (NANP)3-12-26; assay type: in vivo; conditions: eight days after immunization with (NANP)3-12-26
# Protocol: For T-cell proliferation studies 100 μg of (NANP)3-12-26 emulsified in CFA was injected in the base of the tail and also food pad of mice on day 0. […] Cells were seeded at 8×10^5 /well flat bottom microtiter plates 1/2 volume in 0.1 ml RPMI containing 10% FCS, […], penicillin, streptomycin and antigen. On day 2, 1 μCi of ^3 H thymidine (ICN) was added to triplicate or duplicate cultures. 16 hr later cells were harvested and incorporated ^3 H was assayed by scintillation counter.
# All T-cell activity is directed to the Class II binding sequence.
substance,measurement,setting,value
P12-26: derived from the cI protein of bacteriophage lambda (residues 12-26),Binding to the I-E^k molecule (in words),I-E^k [1],able to bind to both molecules as expected
same,IC50,I-E^k [2],300 µM
same,T-cell proliferation by thymidine incorporation on culture with peptide,[3],T-cell proliferation as assayed by thymidine incorporation was seen
